Assay [1] has as its target Myc-tagged extracellular domain of NKp46 (human) (UniProt O76036). The assay is described as follows: MST.
The target in assay [2] is recombinant NKp46 (Raman spectroscopy) (UniProt O76036). The assay is described as follows: Raman spectroscopy.

Chain of UniProt O76036 (O76036 22-258): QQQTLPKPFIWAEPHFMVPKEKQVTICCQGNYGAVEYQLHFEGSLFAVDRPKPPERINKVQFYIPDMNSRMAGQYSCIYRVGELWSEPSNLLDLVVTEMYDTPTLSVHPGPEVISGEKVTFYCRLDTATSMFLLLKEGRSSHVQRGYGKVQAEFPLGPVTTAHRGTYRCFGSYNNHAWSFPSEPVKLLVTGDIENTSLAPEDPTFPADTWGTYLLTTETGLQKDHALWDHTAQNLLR

As usually defined, the Kd is the equilibrium constant for the complex coming apart. Turning to “CRT P domain fused at the C-terminus to the Fc domain of human Ig (Fc fusion)”, the Kd in assay [1] stood at 41.2 µM.
In the case of “recombinant CRT (Raman spectroscopy) (from UniProt P27797 18-417) (natural protein)”, the Kd in assay [2] is 9.95 µM.

These data come from article doi:10.1101/2021.10.31.466654.
